Data: PMC7954794, “Protein context shapes the specificity of SH3 domain-mediated interactions in vivo” (Nature Communications, 2021)

Key:
Assay type in all cases: cell-based, Saccharomyces cerevisiae
BBC1 = assay: DHFR-PCA on solid medium, bait BBC1 (Fig. 1B); settings: bait BBC1, label = prey; for medrep (log2 median colony size normalized to plate background, PCA score): 2-4 replicates; for Ratio (SH3-deleted/WT medrep): only significant differences showed, PPIs completely lost have a ratio of 0.1 and the gained PPIs 2.5
From the text: (§1) Supplement 41467_2021_21873_MOESM8_ESM.xlsx, sheet "Fig1B" | column: medsize; medrep; Ratio; Score

ABP1 = assay: DHFR-PCA on solid medium, bait ABP1 (Fig. 1B); settings: bait ABP1, label = prey; 2-4 replicates
From the text: as §1

[1] = tested on: 575 putative partners (preys) of 22 WT SH3-containing proteins; assay: DHFR-PCA on solid medium, WT and SH3-deleted baits (Fig. 1B); set-up: key to Score: 0: SH3-independent; 1: SH3-dependent PPIs; 2: SH3-inhibited PPIs; settings: for medrep (log2 median colony size normalized to plate background, PCA score): label = prey; for Ratio (SH3-deleted/WT medrep): only significant differences shown, PPIs completely lost have a ratio of 0.1, gained PPIs 2.5
Method in brief: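 Interactions scored by DHFR protein-fragment complementation on solid medium using robotic pinning; preys (DHFR F[3] fusions) arrayed in duplicate with control borders. Baits carried C-terminal DHFR F[1,2]-FLAG tags, tested as wild type and as SH3-deleted versions carrying a flexible Gly/Ser stuffer.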

[2] = bait SLA1-3, DHFR-PCA, Replicates 4 (2 for YCR009C, YDR388W, YIL033C)
[3] = bait SLA1-2, DHFR-PCA, Replicates 4 (2 for YCR009C, YDR388W)

| Molecule | medrep (log2 median colony size normalized to plate background, PCA score) (BBC1) | Ratio (SH3-deleted/WT medrep) (BBC1) | medrep (log2 median colony size normalized to plate background, PCA score) (ABP1) | medrep (log2 median colony size normalized to plate background, PCA score) [1, 2] | Score ([1]; bait SLA1-3, label = prey) | medrep (log2 median colony size normalized to plate background, PCA score) [1, 3] | Score ([1]; bait SLA1-2, label = prey) | Ratio (SH3-deleted/WT medrep) ([1]; bait SLA1-2, label = prey) |
| --- | --- | --- | --- | --- | --- | --- | --- | --- |
| YIR006C (protein, UniProt P32521 1-1480, looked up) Actin cytoskeleton-regulatory …: MYNPYQQQGMGYQQQQQQQQQQPNGFYPQQQQGQSSNQPQGQPQPQQQMAFNQPQATGIGGMPQSFGNSFSSMPQQPQTGYNNNGNNGSVYGNGNFGQQPQQQQQQAKPQHTGYVPNSSMPMMNTTGTMPPPNPAQQPQLQSIQPQGTGYYQAANTANVHSVQPLQSQGTGYYVSTPNLISSNQTQQPLQAQGTGYYQSQPQQVPPPQQAQSLQPLKPQQTGFYLQPQNQAPLEPLKPTATGFVNSFANNGLNNDIKIPAIRLSFITAQDQAKFETLFRSIVTNGSNTVSGANCRKILMRSGLPPSQLARIWTLCDTSKAGELLFPEFALAMHLINDVLQGDTIPYELDSKTKNEVSSFIDAINLSIANQDSSANDAPKTPFDEFITAGVQNLQPQPTGYMPQTSFGIPLQSQITGGGVASALNPQSTGFMAPTTFNMSMNTGTPGLNPQITGGAPASMQPNITGNALQPQTTGMMPQTTGMMPQTTGMMPQTSFGVNLGPQLTGGALQSQYTGGYGSVMPQQSGPASMPNLSFNQQGLQSQLTGLQPQPTGFLPPSNFSATMPLTAQKTGFGNNEIYTKSNFNNNLIDNSSQDKISTEEKSLFYKIFETFDTQNKGLLDSPTAVEIFRKSGLNRADLEQIWNLCDINNTGQLNKQEFALGMHLVYGKLNGKPIPNVLPSSLIPSSTKLLDNLKNQLKTEPTTTKEKPSFGKIDALSYKNNDDDVLPNYRNRRKVYSAKNEEQSSFSSPSAKSVNHSSSTLQTDDISVDKTVEKKTAKPKYAGFSREINLKNIASLENEIKNISNPENCYDSSIPSDLTSRFDAIIAKLPNLFNEISTIDNEITNAKIQLYRKKNPSSIIGSGPNGEITENDRKKAKSRALLRARMSALTGKSTESEDSLSMEDEQQSAEIKRIQQENGKNQEIIKDIRSSISDISASLKSTMTGSNMISNQEFERWEFGIGLEDGVREFLDDLKSNSNKSVTESSPFVPSSTPTPVDDRSSSPSYSQFKTAEERAAYLKEQAKKRMKEKLAKFDKNRRNVTQSSRSISSENSREQPQQIAGSSNLVEPRATPFQEEKYVEVAQPTQPVQSTQPVQPTQPVQPTQPVQPTQPVQPTQPVQPTQPVQNVYNAKQESDDEDEDDEEKRLQEELKRLKLKKKADKEKRLAALRKQIEDAQNESDEEETNGKDNFGGHVNVPQAAPVAPSAAFSQNSTNAPRSVHAAVTPAAGKNSTGLPSTTMGHNPYFKDASASSTSTFDARAAEMQRRIQRGLDEDEDDGWSDEDESNNRVAVDNKVEEAKIGHPDHARAPPVTAAPLPSVTPVPPAVPVPQANTSNEKSSPIPIAPIPPSVTQEPPVPLAPPLPAVDGFQEPPIPSAPAIATAVQKSGSSTPALAGGVLPPPPPLPTQQASTSEPIIAHVDNYNGAEKGTGAYGSDSDDDVLSIPESVGTDEEEEGAQPVSTAGIPSIPPAGIPPPPPLP | 1.896 | 0.4416 | 5.062 | 4.7899 | 0 | – | – | – |
| YIR003W (protein, UniProt P40563 1-679, looked up) Altered inheritance of …: MPSEVTPKVPERPSRRKTSELFPLSGSESGDIKANSEPPTPAGTPNVPTRRPILKAKTMTSFESGMDQESLPKVPLQRPVRRSTTEELNNVMNNTSKELEEIESLISKHNIHNVSRKKSPTSVEEGKVAAIHQNGQRSASDNKTSTNPSPLEKNEHEGAEGNESAISPSNLVNKSNNEVTEHSDSEDLTEKQKVHAALDNEAGDRSHFEEKLIPGDMKVQVDVSKDVEEGSLNALPPSGITESDDKAEKFTKHPESSLEELQKHQEQQEEKIFQNPTDEESTTSLNEKQEGKDNMEVNSQPQGPSDTETVIAATSSNVPSQIASEEENDVPVIPRSRPKKDFEAHVQKEELPNTQEKRVSEECDSTLISTEEESKIPKIPSERPKRRAPPPVPKKPSSRIAAFQEMLQKQQQQDLHNNGNSSATTASADIAKKHTDSSITSDTTKADFTSKLNGLFALPGMVNPGQLPPSLEKKLSSPDTESKLGPQDQSQAKTGPLGGTRRGRGPRGRKLPSKVASVEKIEEDDNTNKIEIFNNWNVSSSFSKEKVLIDTTPGEQAERALDEKSKSIPEEQREQSPNKMEAALCPFELDEKEKLPANAESDPLSQLPQTNAVGNRKAISEESLSPSEAIANRDQNDTTEIQEQQMEDQMEVDMERELSGGYEDVDSALHSEEASFHSL | 5.119 | – | 4.768 | 2.274 | 0 | 2.274 | 1 | 0.1 |
| YFL010C (protein, UniProt P43582 1-211, looked up) WW domain-containing protein …: MAQSKSNPPQVPSGWKAVFDDEYQTWYYVDLSTNSSQWEPPRGTTWPRPKGPPPGVNNEKSSRQQADQAPPPYSSQSTPQVQAGAQAQQPRYYQPQQPQYPQYPQQQRYYPQQAPMPAAAPQQAYYGTAPSTSKGSGHGGAMMGGLLGVGAGLLGGAMLEHAFDDHNYDGPDTVVVENNYYGDDAGGSDGGFDDAGGFDGGFDDGFDGSDF | 1.4009 | 0.1 | 2.163 | – | – | – | – | – |
| YLR196W (protein, UniProt P21304 1-576, looked up) Periodic tryptophan protein 1: MISATNWVPRGFSSEFPEKYVLDDEEVERINQLAQLNLDDAKATLEEAEGESGVEDDAATGSSNKLKDQLDIDDDLKEYNLEEYDDEEIADNEGGKDVSMFPGLSNDSDVKFHEGEKGEDPYISLPNQEDSQEEKQELQVYPSDNLVLAARTEDDVSYLDIYVYDDGAGFHSSDIPVEEGDEADPDVARGLVRDPALYVHHDLMLPAFPLCVEWLDYKVGSNSEEAANYAAIGTFDPQIEIWNLDCVDKAFPDMILGEPLDNSMVSLKSKKKKKKSKTGHITTHHTDAVLSMAHNKYFRSVLASTSADHTVKLWDLNSGNAARSLASIHSNKNVSSSEWHMLNGSILLTGGYDSRVALTDVRISDESQMSKYWSAMAGEEIETVTFASENIILCGTDSGNVYSFDIRNNENRKPVWTLKAHDAGISTLCSNKFIPGMMSTGAMGEKTVKLWKFPLDDATNTKGPSMVLSRDFDVGNVLTSSFAPDIEVAGTMVIGGVNKVLKLWDVFTNRSVRKSFKSELENVQARAKEEAQKIGKSSRIARKYTSNDNPDTVITIDDQGEDEEEREGGDEHDDMA | 2.428 | 0.1 | 3.732 | – | – | – | – | – |
| YLR337C (protein, UniProt P37370 1-817, looked up) Verprolin: MAGAPAPPPPPPPPALGGSAPKPAKSVMQGRDALLGDIRKGMKLKKAETNDRSAPIVGGGVVSSASGSSGTVSSKGPSMSAPPIPGMGAPQLGDILAGGIPKLKHINNNASTKPSPSASAPPIPGAVPSVAAPPIPNAPLSPAPAVPSIPSSSAPPIPDIPSSAAPPIPIVPSSPAPPLPLSGASAPKVPQNRPHMPSVRPAHRSHQRKSSNISLPSVSAPPLPSASLPTHVSNPPQAPPPPPTPTIGLDSKNIKPTDNAVSPPSSEVPAGGLPFLAEINARRSERGAVEGVSSTKIQTENHKSPSQPPLPSSAPPIPTSHAPPLPPTAPPPPSLPNVTSAPKKATSAPAPPPPPLPAAMSSASTNSVKATPVPPTLAPPLPNTTSVPPNKASSMPAPPPPPPPPPGAFSTSSALSASSIPLAPLPPPPPPSVATSVPSAPPPPPTLTTNKPSASSKQSKISSSSSSSAVTPGGPLPFLAEIQKKRDDRFVVGGDTGYTTQDKQEDVIGSSKDDNVRPSPISPSINPPKQSSQNGMSFLDEIESKLHKQTSSNAFNAPPPHTDAMAPPLPPSAPPPPITSLPTPTASGDDHTNDKSETVLGMKKAKAPALPGHVPPPPVPPVLSDDSKNNVPAASLLHDVLPSSNLEKPPSPPVAAAPPLPTFSAPSLPQQSVSTSIPSPPPVAPTLSVRTETESISKNPTKSPPPPPSPSTMDTGTSNSPSKNLKQRLFSTGGSTLQHKHNTHTNQPDVDVGRYTIGGSNSIVGAKSGNERIVIDDSRFKWTNVSQMPKPRPFQNKTKLYPSGKGSSVPLDLTLFT | 2.429 | 0.57 | 4.481 | 4.892 | 0 | 2.095 | 1 | 0.4282 |
| YOR042W (protein, UniProt Q08412 1-411, looked up) Ubiquitin-binding protein CUE5: MEEKEGIKDSSLLEKSNVPESINEDISKTTDVDLNSDGKKDNDTSAKDGTPKVEEKVNKSSGIDEDEVVTPAEDAKEEEEEHPPLPARRKSEEEPSKENPILQELKDAFPNLEEKYIKAVIIASQGVLSPAFNALLFLSDPESGKDIELPTQPVRKNPEAPARRRQTQLEQDELLARQLDEQFNSSHSRRRNRDRATRSMHEQRRRRHNPNEREQHHEDSEEEDSWSQFVEKDLPELTDRAGRSLQDTANKVSNWISDAYRRNFASGNEQNDNQHGHQDQQEWEPEIVDLSQGGKNSRPQQPERRRFNSFGVQVGDDSLESHGITLHNEDGFEDDEDVPPQLPTRTKSGESTGKVVAETTYIDTPDTETKKKWQPLPPEPLDTTPTKVNAVSRNKKNPDEDEFLINSDDEM | 1.718 | 0.1 | 4.057 | 2.528 | 0 | 2.528 | 1 | 0.1 |
